Experiments:
[1] = target: Heme group within Hemoglobin (Homo sapiens, UniProt P68871+P69905); assay: cross reactivity, competitive ELISA and immuno affinity assay, Hemoglobin; type: binding
Text: The selectivity of anti CoTCPP and anti Imisdp was further challenged, by testing their cross reactivity with non related zinc dependent enzymes—Carbonic Anhydrase (CA) and brockii alcohol dehydrogenase (TbADH). Similar to active MMPs CA contains a zinc ion that is tetrahedraly coordinated to three histidine residues and a water molecule, TbADH contains a catalytic zinc ion that is tetraheadrally coordinated to four different amino acid residues, histidine, cysteine, aspartate and glutamate. […] Anti CoTCPP mAb was also tested for its cross reactivity with related physiological porphyrins such as the Heme group within Myoglobin and Hemoglobin and vitamin.

[2] = target: T1, full length native MMP-2 secreted by HT1080 cells (Homo sapiens, UniProt P08253); assay: immunoprecipitation of HT1080 conditioned medium and western blot; type: binding; conditions: HT1080 conditioned medium, not activated
T1 construct: full length native MMP-2 secreted by human fibrosarcoma (HT1080) cell cultures; endogenous in cells; host or cells: HT1080 human fibrosarcoma cells, conditioned medium
T1 sequence (P08253 30-660): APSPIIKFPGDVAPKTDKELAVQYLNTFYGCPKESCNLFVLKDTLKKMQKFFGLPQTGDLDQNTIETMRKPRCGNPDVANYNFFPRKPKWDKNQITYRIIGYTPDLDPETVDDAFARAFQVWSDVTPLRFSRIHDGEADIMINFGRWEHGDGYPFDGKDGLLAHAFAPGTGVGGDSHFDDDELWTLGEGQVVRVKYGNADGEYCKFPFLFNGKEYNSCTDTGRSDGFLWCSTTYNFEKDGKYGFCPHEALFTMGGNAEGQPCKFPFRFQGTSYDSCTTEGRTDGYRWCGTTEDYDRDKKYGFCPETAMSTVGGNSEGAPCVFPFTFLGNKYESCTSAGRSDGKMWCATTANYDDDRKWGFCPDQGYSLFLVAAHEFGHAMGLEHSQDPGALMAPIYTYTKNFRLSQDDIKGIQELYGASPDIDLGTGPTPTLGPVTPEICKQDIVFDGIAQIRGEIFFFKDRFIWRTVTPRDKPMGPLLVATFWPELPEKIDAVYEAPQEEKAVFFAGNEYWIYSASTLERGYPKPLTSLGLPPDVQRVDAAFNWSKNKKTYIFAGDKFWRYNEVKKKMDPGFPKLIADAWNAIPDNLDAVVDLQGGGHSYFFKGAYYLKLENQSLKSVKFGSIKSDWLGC
Protocol: HT1080 cells were seeded in petri dishes. After reaching 80% confluence, the medium (DMEM supplemented with 10% FCS, nonessential amino acids, penicillin, streptomycin, sodium pyruvate, and L-glutamine) was changed to serum free medium (without FCS). Following another 24 h of incubation, conditioned medium (CM) was harvested from the adherent cells and concentrated using Millipore Centricon-10 (Bedford, Mass.). Concentrated supernatants were used for immunoprecipitations. CM was incubated with anti-1 (CoTCPP) mAb (15 μg/ml) overnight at 4° C. […] Beads were washed 3 times with PBS, suspended in SDS sample buffer, and heated to 95° C. for 3 min Immunoprecipitates were recovered by centrifugation and subjected to SDS/PAGE. After separation, proteins were transferred to nitrocellulose (NC) membranes and probed with anti-MMP-2 antibody.
To activate ProMMP-2 produced by HT1080 cells, 1 mM of 4-aminophenyl mercuric acetate (APMA) was added to the concentrated CM followed by 6 h incubation in 37° C. After activation, the CM was dialyzed (×3) against PBS at 4° C., to remove APMA Immunoprecipitation with the activated medium was performed as described above.

MMP-7 (matrilysin) = target: T2, MMP-7 (matrilysin) (Homo sapiens, UniProt P09237); assay: inhibition assay with fluorogenic peptide substrate, MMP-7; type: biochemical; conditions: mAb concentrations of up to 30 μM
T2 sequence (P09237 95-267): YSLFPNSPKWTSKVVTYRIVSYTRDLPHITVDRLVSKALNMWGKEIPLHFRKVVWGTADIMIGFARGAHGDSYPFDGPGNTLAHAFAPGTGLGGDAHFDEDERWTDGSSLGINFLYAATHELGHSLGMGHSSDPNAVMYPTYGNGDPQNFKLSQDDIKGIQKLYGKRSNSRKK
Protocol: To explore the selectivity of 6C6, its reactivity was tested toward different matrix metalloproteinase subgroups including matrilysin (MMP7), membrane type MMP (MT1-MMP) and related disintegrin (ADAMs) tumor necrosis factor-α-converting enzyme (TACE). The core structures of these enzymes, are highly similar, varying mostly within the peripheral loops. Specifically the zinc-histidine scaffold is well conserved, showing a consensus helix followed by a loop that serves as a scaffold for the three histidine residues that coordinate the catalytic zinc ion (FIG. 13).
Similar inhibition assays were performed with appropriate flourogenic peptide substrates. […] Sequence variations, mostly within the peripheral loops dictate differences in the extent of exposure of the zinc-histidine motif, in the shape of the active site and its surface electrostatic may account for this selective inhibitory pattern.

Pro-MMP-2 = target: T3, Pro-MMP-2 (Homo sapiens, UniProt P08253); type: binding
T3 sequence (P08253 30-660 limits assumed): T1 sequence (P08253 30-660)

Heme group within Hemoglobin, sequence (P69905 2-142 limits assumed): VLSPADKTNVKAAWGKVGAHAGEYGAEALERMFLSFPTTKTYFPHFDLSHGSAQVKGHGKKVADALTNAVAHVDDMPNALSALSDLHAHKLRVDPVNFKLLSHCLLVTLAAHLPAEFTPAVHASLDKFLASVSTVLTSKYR
Heme group within Hemoglobin, sequence (P68871 2-147 limits assumed): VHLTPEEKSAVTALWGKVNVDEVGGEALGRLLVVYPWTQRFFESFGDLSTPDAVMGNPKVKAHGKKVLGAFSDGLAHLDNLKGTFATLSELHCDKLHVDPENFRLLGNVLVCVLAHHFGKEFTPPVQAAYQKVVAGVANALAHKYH

B1: 13E11: monoclonal antibody, IgG2b, raised against the hapten CoTCPP (antibody, V domains shown)
VH: EGGGLVQPGGSRKLSCAASGFTFTSFGMHWVRQAPEKGLEWVAYISSGNEIIYYADTVKGRFTISRDNPKNTLFLQMTSLRSEDTAMYYCARNYYRYGFYVMDYWGQG
VL: EIVVTQSPAILSASPGEKVTMTCRASSSVSYMHWYQQKPGSSPKPWIYATSNELASGVPARFSGSGSGTSYSLTISRVEAEDAATYYCQQWISNPLTFGAG
modifications: 13E11 mAb heavy chain; 13E11 mAb light chain
notes: monoclonal antibody, IgG2b, raised against the hapten CoTCPP
Q: With B1 as the molecule, how does the “cross reactivity with Hemoglobin” value [1] read?
A: No cross was detected

Q: What about the “binding to Pro-MMP-2” value [2] of the same molecule?
A: but not Pro-MMP-2

B2: 6C6: monoclonal antibody, IgG2a, raised against the hapten Imisdp; MMP-2 and MMP-9 inhibitory; SEQ ID NO: 1 (protein)
chain: CMETTQTPLSLPVSLGDQASISCRSSQSIVHSNGNTFLEWYLQKPGQSPKLLIYKVSNCRFSGVPDRFSGSGSGTDFTLKISRVEAEDLGVYYCFQASHVPPTFGGG
modifications: 6c6 mAb light chain
Q: B2 was tested. Which “inhibition of MMP-7” value (MMP-7 (matrilysin)) did it give?
A: neither MMP-7 nor TACE were inhibited to any measurable extent

Q: What about the “binding to Pro-MMP-2” value (Pro-MMP-2) of the same molecule?
A: did not bind
